The target of this assay is T1, biotinylated recombinant CD371 (soluble CD371) (Homo sapiens (Human), UniProt Q5QGZ9 65-265, biotinylated (site not stated)).
T1 sequence: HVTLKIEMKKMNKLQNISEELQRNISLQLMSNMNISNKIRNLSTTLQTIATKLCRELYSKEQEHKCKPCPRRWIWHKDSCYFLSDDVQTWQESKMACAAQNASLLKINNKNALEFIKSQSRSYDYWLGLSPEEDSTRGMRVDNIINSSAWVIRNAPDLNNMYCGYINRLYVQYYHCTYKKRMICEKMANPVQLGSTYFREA
Put plainly: biotinylated CD371 captured with streptavidin, soluble scFv as analyte. The text has this: For scFv affinity measurements, biotinylated CD371 was captured with streptavidin, and soluble scFv was used as analyte. […] Consistent with the flow cytometry results, weak binding of the 1B10 scFv in the VH-VL orientation was observed but a dissociation constant could not be calculated by any curve fit method.

B1: B10 scFv in the VL-VH orientation (scFv)
scFv: DIVMTQSPDSLAVSLGERATINCKSSQSVLDSYNNENNLAWYQQKPGQPPKLLIYWASTRESGVPDRFSGSGSGTDFTLTISSLQAEDVAVYYCQQYTSEPITFGQGTKVEIKGGGGSGGGGSGGGSGGGGSEVQLLESGGGLVQPGGSLRLSCAASGFTFSDYQMSWVRQAPGKGLEWVSGIQGGGGSTYYADSVKGRFTISRDNSKNTLYLQMNSLRAEDTAVYYCAREMWRGDYYSGMDVWGQGTTVTVSS
notes: also called 1B10 scFv VL-VH; VL-VH scFv
Consider B1, for which the Kd (as a rule, the constant that tells how readily two partners part at equilibrium) was 16 nM; the koff (commonly the rate constant with which the complex falls apart) turned out to be 0.00952 s⁻¹; the kon (commonly the second-order rate constant of association) amounted to 599000 M⁻¹ s⁻¹.

The values above are taken from patent publication US20220213211A1 (Memorial Sloan Kettering, published 2022).
